B1: full-length mature human HtrA2 without the active site serine (S306A) (enzyme, UniProt O43464 134-458, looked up)
chain: AVPSPPPASPRSQYNFIADVVEKTAPAVVYIEILDRHPFLGREVPISNGSGFVVAADGLIVTNAHVVADRRRVRVRLLSGDTYEAVVTAVDPVADIATLRIQTKEPLPTLPLGRSADVRQGEFVVAMGSPFALQNTITSGIVSSAQRPARDLGLPQTNVEYIQTDAAIDFGNAGGPLVNLDGEVIGVNTMKVTAGISFAIPSDRLREFLHRGEKKNSSSGISGSQRRYIGVMMLTLSPSILAELQLREPSFPDVQHGVLIHKVILGSPAHRAGLRPGDVILAIGEQMVQNAEDVYEAVRTQSQLAVQIRRGRETLTLYVTPEVTE
notes: human HtrA2 (Omi), mature form; the methods name the construct HtrA2^133–458; the SEC-MALS constants are of the trimer to hexamer step; also called HtrA2^S306A; MALVI^proS-HtrA2^S306A; source: E. coli BL21 (λDE3), purified (Ni-HisTrap, gel filtration)
B2: DD-PDZOpt activating peptide (peptide)
peptide: DDGQYYFV
notes: source: synthetic peptide, bought: GenScript
B3: isolated HtrA2-PDZ domain (residues 349–458) (domain or fragment, human)
chain: NSSSGISGSQRRYIGVMMLTLSPSILAELQLREPSFPDVQHGVLIHKVILGSPAHRAGLRPGDVILAIGEQMVQNAEDVYEAVRTQSQLAVQIRRGRETLTLYVTPEVTE
notes: human HtrA2 (Omi), PDZ domain, residues 349-458; also called HtrA2^349-458; ALVIT-PDZ; source: E. coli BL21 (λDE3), purified (Ni-HisTrap, SENP1 cleavage, gel filtration); not shown: 6xHis-SUMO, N-terminal, cleaved
B4: isolated HtrA2-PDZ domain (residues 349–458) (domain or fragment, human, UniProt O43464 349-458, looked up)
chain: B3 chain
notes: HtrA2 (Omi), human mitochondrial serine protease, carboxy-terminal PDZ domain, residues 349-458 of the full-length protein of 458 residues; Constructs were either amino-terminally SUMO-His6-tagged (pET28b; tag removed with SENP1) or carboxy-terminally His6-tagged (pET21b); Isotope-labelled for NMR; also called ALVIT-PDZ; source: E. coli BL21 (λDE3), purified (Ni2+-HisTrap, gel filtration)
B5: full-length mature human HtrA2^133–458 S306A (enzyme, UniProt O43464 133-458, looked up)
chain: AAVPSPPPASPRSQYNFIADVVEKTAPAVVYIEILDRHPFLGREVPISNGSGFVVAADGLIVTNAHVVADRRRVRVRLLSGDTYEAVVTAVDPVADIATLRIQTKEPLPTLPLGRSADVRQGEFVVAMGSPFALQNTITSGIVSSAQRPARDLGLPQTNVEYIQTDAAIDFGNAGGPLVNLDGEVIGVNTMKVTAGISFAIPSDRLREFLHRGEKKNSSSGISGSQRRYIGVMMLTLSPSILAELQLREPSFPDVQHGVLIHKVILGSPAHRAGLRPGDVILAIGEQMVQNAEDVYEAVRTQSQLAVQIRRGRETLTLYVTPEVTE
notes: HtrA2 (Omi), human, mature form, residues 133-458 of the full-length protein of 458 residues, active site serine replaced (S306A); The purchased construct is named pET21b-HtrA2, and pET21b constructs are said to be carboxy-terminally His6-tagged; The purification text also describes removal of a SUMO-His6 tag; The introduction says that the mature protein lacks the 133 amino-terminal residues, …
B6: DD-PDZOpt activating peptide (peptide)
peptide: DDGQYYFV
notes: as for B2

Positions count from the first letter of the chain named. Names may count otherwise. Some results are limits rather than exact numbers.

Data set [1] deals with the molecule itself. The experiment in a line: SEC-MALS; HtrA2^S306A loaded at 4-7.5 mg/ml, Superdex Increase 200 10/300 GL, HBS pH 7.4, RT (~297 K), no added metal ions; trimer to hexamer (fitted with the monomer-dimer equation); KD given as a lower limit.
Data set [2] concerns the molecule itself. The experiment in a line: SEC-MALS; HtrA2^S306A loaded at 5-7.5 mg/ml, Superdex Increase 200 10/300 GL, HBS pH 7.4, RT (~297 K), with 25 mM CaCl2; trimer to hexamer (fitted with the monomer-dimer equation); KD given as a lower limit.
Data set [3] concerns the target T1, wild-type mature human HtrA2 (human).
T1 construct: made from the S306A construct that the methods name HtrA2^133–458; also called wild-type HtrA2; Omi; source: E. coli BL21 (λDE3), purified (Ni-HisTrap, gel filtration)
T1 chain: B1 chain with A173S
The experiment in a line: fluorescence cleavage assay (cleavage rate of H2Opt against DD-PDZOpt concentration, one-site binding model); apparent; 510 nM wild-type HtrA2 (monomeric concentration), 20 µM H2Opt, DD-PDZOpt varied, 20 mM HEPES pH 7.4, 1 mM EDTA, 313 K; no additive. The settings on record: both partners purified.

For data set [4], the target named is T1, wild-type mature human HtrA2. The data set can be described thus: fluorescence cleavage assay (cleavage rate of H2Opt against DD-PDZOpt concentration, one-site binding model); apparent; 510 nM wild-type HtrA2 (monomeric concentration), 20 µM H2Opt, DD-PDZOpt varied, 20 mM HEPES pH 7.4, no EDTA, 2 mM MgSO4, 313 K. The settings on record: both partners purified.

Data set [5] has the same target. The experiment in a line: fluorescence cleavage assay (cleavage rate of H2Opt against DD-PDZOpt concentration, one-site binding model); apparent; 510 nM wild-type HtrA2 (monomeric concentration), 20 µM H2Opt, DD-PDZOpt varied, 20 mM HEPES pH 7.4, no EDTA, 2 mM CaCl2, 313 K. As to conditions: both partners purified.
Data set [6] concerns the molecule itself. The experiment in a line: SEC-MALS; HtrA2-PDZ loaded at 100-800 µM, Superdex Increase 200 10/300 GL, HBS (20 mM HEPES, 150 mM NaCl) pH 7.4, RT (~297 K), with CuCl2; monomer to dimer; KD given as a lower limit. (Size exclusion chromatography separates by hydrodynamic size, large species first.)
Data set [7] concerns the molecule itself. The experiment in a line: SEC-MALS; HtrA2-PDZ loaded at 100-800 µM, Superdex Increase 200 10/300 GL, HBS (20 mM HEPES, 150 mM NaCl) pH 7.4, RT (~297 K), with ZnSO4; monomer to dimer; KD given as a lower limit.
Data set [8] concerns the molecule itself. The experiment in a line: SEC-MALS; HtrA2-PDZ loaded at 100-800 µM, Superdex Increase 200 10/300 GL, HBS (20 mM HEPES, 150 mM NaCl) pH 7.4, RT (~297 K), with CaCl2; monomer to dimer; KD given as a lower limit.
Data set [9] concerns the molecule itself. The data set can be described thus: SEC-MALS; HtrA2-PDZ loaded at 100-800 µM, Superdex Increase 200 10/300 GL, HBS (20 mM HEPES, 150 mM NaCl) pH 7.4, RT (~297 K), with Mg2+ (+MgCl2 in the figure, MgSO4 in Supplementary Table 1); monomer to dimer; KD given as a lower limit.
Data set [10] concerns the molecule itself. The experiment in a line: SEC-MALS; HtrA2-PDZ in HBS (20 mM HEPES, 150 mM NaCl) pH 7.4 supplemented with Zn2+, compared with the non-supplemented buffer; dimer to monomers.
Data set [11] deals with the molecule itself. The data set can be described thus: SEC-MALS; HtrA2-PDZ at a range of concentrations, Superdex Increase 200 10/300 GL, PBS pH 7.4, RT (~297 K); KD fitted assuming a fast monomer-dimer equilibrium; dimer to monomers; lower limit because the concentration range was limited by solubility.
Data set [12] deals with the molecule itself. The data set can be described thus: SEC-MALS; HtrA2-PDZ in the presence of the activating peptide DD-PDZOpt; dimer to monomers.
Data set [13] concerns the molecule itself. The experiment in a line: SEC-MALS; HtrA2^S306A at increasing concentrations in HBS pH 7.4 without divalent ions; multimerization KD fitted assuming a fast monomer-dimer equilibrium.
Data set [14] deals with B4. The experiment in a line: NMR titration; DD-PDZOpt titrated to HtrA2-PDZ, 2D [15N,1H] and 2D [13C,1H] spectra (ALVIT methyl-labelled PDZ); line-shape analysis with TITAN, two-state ligand binding model; 298 K. As to conditions: both partners purified.
The next data set addresses T2, wild-type mature HtrA2 (human, UniProt O43464 134-458).
T2 sequence (looked up): B1 chain with A173S
The data set can be described thus: cell-based or functional assay.

The values below come from publication PMC11535027, “Structural basis of substrate recognition and allosteric activation of the proapoptotic mitochondrial HtrA2 protease” (Nature Communications, 2024).

Consider B1, for which the Kd in data set [1] is at least 960 µM; in data set [2], at least 490 µM.

For B2, the Kd in [3] turned out to be 27.9 µM; in data set [4], 11.9 µM; in data set [5], 1.53 µM.

With B3, the Kd was at least 4160 µM in data set [6], at least 250 µM in [7], at least 9200 µM in data set [8] and at least 3520 µM in data set [9].

On to B4, for which the “fold increase of the propensity to dimerize with Zn2+ against the non-supplemented buffer” value in data set [10] is about 50 fold. For the same molecule, the Kd in data set [11] was at least 13000 µM; in data set [12], 10300 ± 2500 µM.

In the case of B5, the Kd in data set [13] is 500 to 1000 µM.

Consider B6, for which the Kd in [14] was 3.18 ± 0.9 µM. Also, the “apparent K_(D,app) of DD-PDZOpt from the H2Opt cleavage rate, with 2 mM Mg2+, as percent of that in standard assay buffer” value with wild-type mature HtrA2 was about 50%.
